From patent publication WO2009080764A2 (dated 2009)

Experiments:
[1] = target: T1, human beta2-microglobulin (human, UniProt P61769 21-119); experiment: ELISA on coated b2-microglobulin from human urine, pH 5.1
T1 construct: also called b2-microglobulin; soluble human b2-microglobulin

[2] = target: shFcRn (intact soluble human FcRn, heavy chain and beta2-microglobulin) (human) (UniProt P55899); experiment: ELISA pH 5.1, purified nanobody 0-50 nM on coated shFcRn, anti-myc detection
[3] = target: T2, human serum albumin (HSA) (human, UniProt P02768 25-609); experiment: SPR Biacore T100, periplasmic extract over immobilized human serum albumin, pH 7 and pH 5
T2 construct: also called monomeric HSA

[4] = target: T3, shFcRn-GST (GST-fused soluble human FcRn, heterodimeric) (human, UniProt P55899 24-290; P61769 21-119); experiment: SPR Biacore 3000, immobilized shFcRn-GST, pH 7.4, equilibrium responses in a steady-state affinity model
T3 construct: Eukaryotically expressed; immobilized by amine coupling on CM5 chips or used in ELISA; also called GST-fused shFcRn; not shown: GST fusion partner
T3 sequence (P55899 24-290, chain 1 of 2): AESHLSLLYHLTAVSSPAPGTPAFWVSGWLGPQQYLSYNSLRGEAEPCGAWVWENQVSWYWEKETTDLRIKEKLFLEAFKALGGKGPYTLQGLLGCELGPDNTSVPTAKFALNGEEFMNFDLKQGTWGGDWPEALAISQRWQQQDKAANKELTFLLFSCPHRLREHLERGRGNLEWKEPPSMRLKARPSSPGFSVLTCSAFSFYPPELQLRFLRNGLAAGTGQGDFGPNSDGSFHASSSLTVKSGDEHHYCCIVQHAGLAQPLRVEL
T3 sequence (P61769 21-119, chain 2 of 2): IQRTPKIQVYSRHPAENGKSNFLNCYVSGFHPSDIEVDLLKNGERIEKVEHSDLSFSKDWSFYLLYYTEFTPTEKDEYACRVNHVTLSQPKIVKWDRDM

[5] = target: T3, shFcRn-GST (GST-fused soluble human …); experiment: SPR Biacore 3000, Nb 500-15 nM over immobilized shFcRn-GST, pH 6.0, 1:1 Langmuir model
[6] = target: T3, shFcRn-GST (GST-fused soluble human …); experiment: SPR Biacore 3000, immobilized shFcRn-GST, pH 6.0, equilibrium responses in a steady-state affinity model
[7] = target: T3, shFcRn-GST (GST-fused soluble human …); experiment: SPR Biacore 3000, Nb 500-15 nM over immobilized shFcRn-GST, pH 7.4, 1:1 Langmuir model

T1 sequence (P61769 21-119 limits assumed): as the sequence (P61769 21-119, chain 2 of 2) above
Chain of shFcRn (intact soluble human FcRn, heavy chain and beta2-microglobulin) (human) (P55899 other isoform, or with tags, fused parts or gaps, chain 1 of 2): as the sequence (P55899 24-290, chain 1 of 2) above, with C48S, C251S counted along it
Chain of shFcRn (intact soluble human FcRn, heavy chain and beta2-microglobulin) (human) (P61769 21-119, chain 2 of 2, further chain): as the sequence (P61769 21-119, chain 2 of 2) above

Binder | binding result [1] | fold improvement in binding against the monovalent nanobody [2] [fold] | fold difference in off rate, pH 5 against pH 7 [3] [fold] | Kd [4] [µM] | Kd [5] [µM] | Kd [6] [µM] | Kd [7] [µM]
218-H4_20GS_218-H4 (bivalent Nb 218-H4) (VHH) EVQLVESGGALVQAGGSLRLSCVASGRTFNSIGMGWFRQAPGKERDFIGGITWDGRDTYYTDSVKGRFTISRDNAKNTVYLQMNSLKPWDTAVYYCAANRDPWIATSYQDYAYWGQGTQVTVSSGGGGSGGGGSGGGGSGGGGSEVQLVESGGALVQAGGSLRLSCVASGRTFNSIGMGWFRQAPGKERDFIGGITWDGRDTYYTDSVKGRFTISRDNAKNTVYLQMNSLKPWDTAVYYCAANRDPWIATSYQDYAYWGQGTQVTVSS | no binding (tested: 0-50 nM) | 10 |  |  |  |  | 
4A9 (VHH) VHH: EVQLVESGGGLVQAGGSLRLSCEASGFTLDYSGVGWFRQAPGKERELVSCISRGGDRAGYANSVKGRFTMSRDNAKNILYLQMNSLKPEDTAVYYCAATHSGSGCYDGAIDYWGKGTLVTVSS |  |  | 0.54 |  |  |  | 
Nb 218-H4 (VHH, Anti-FcRn Nanobody, family V; detected through a myc tag; also called monovalent nanobody) VHH: EVQLVESGGALVQAGGSLRLSCVASGRTFNSIGMGWFRQAPGKERDFIGGITWDGRDTYYTDSVKGRFTISRDNAKNTVYLQMNSLKPWDTAVYYCAANRDPWIATSYQDYAYWGQGTQVTVSS | no binding (tested: 0-50 nM) |  |  | 0.0556 | ~0.0212 | 0.022 | ~0.0525
